These are literature values, as cited in US20190382462A1, “METHODS AND COMPOSITIONS FOR TREATING HPA HYPERACTIVITY” (priority 2017, published 2019).

Like-named read-outs stand apart in the source and are kept apart here. Where no end group is shown, it is not given here.

One data set deals with T1, CRF-BP (Homo sapiens, UniProt P24387).
T1 sequence (P24387 25-322): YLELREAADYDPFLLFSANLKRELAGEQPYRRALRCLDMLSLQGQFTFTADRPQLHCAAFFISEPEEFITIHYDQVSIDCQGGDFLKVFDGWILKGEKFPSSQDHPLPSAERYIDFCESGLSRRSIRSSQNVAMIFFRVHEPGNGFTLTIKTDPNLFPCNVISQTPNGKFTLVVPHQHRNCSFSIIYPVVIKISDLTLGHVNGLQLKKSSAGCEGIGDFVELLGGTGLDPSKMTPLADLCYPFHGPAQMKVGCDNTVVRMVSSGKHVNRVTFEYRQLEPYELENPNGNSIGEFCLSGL

For data set [1] the following is noted: human serum.
Another data set deals with T2, CRF1 (Homo sapiens, UniProt P34998).
T2 sequence (P34998 24-415): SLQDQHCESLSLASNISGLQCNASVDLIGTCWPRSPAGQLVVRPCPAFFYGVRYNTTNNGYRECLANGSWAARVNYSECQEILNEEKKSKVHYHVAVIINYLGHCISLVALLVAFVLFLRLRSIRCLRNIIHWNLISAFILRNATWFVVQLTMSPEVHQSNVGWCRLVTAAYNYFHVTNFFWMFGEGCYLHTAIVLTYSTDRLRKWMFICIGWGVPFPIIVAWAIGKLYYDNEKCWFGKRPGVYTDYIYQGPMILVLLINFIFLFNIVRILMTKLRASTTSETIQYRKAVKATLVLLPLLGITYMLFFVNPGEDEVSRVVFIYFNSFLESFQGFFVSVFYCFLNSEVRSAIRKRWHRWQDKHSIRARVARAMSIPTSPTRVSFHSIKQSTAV

“Ucn3: CRF-related peptide, selective CRF2 agonist (FTLSLDVPTNIMNLLFNIAKAKNLRAQAAANAHLMAQI; ends and bridges not checked; UniProt Q969E3 120-157, looked up)”: the “affinity for CRF-BP” value in the data set with CRF-BP is reported as “neither Ucn2 nor Ucn3 exhibits appreciable affinity”.

On to etanercept, for which the half-life entry (b287, b290) is on record as “roughly 70 hours”.

As for “Ucn2: CRF-related peptide, selective CRF2 agonist (IVLSLDVPIGLLQILLEQARARAAREQATTNARILARVGHC; ends and bridges not checked; UniProt Q96RP3 72-112, looked up)”, in the data set with CRF-BP, the “affinity for CRF-BP” value is on record as “neither Ucn2 nor Ucn3 exhibits appreciable affinity”.

For the substance “Human transferrin: highly abundant serum glycoprotein that carries iron”, the half-life in data set [1] was 170 to 288 h.

Regarding “Factor IX: other formulations of Factor IX alone”, the half-life (b170, Alprolix: terminal half-life in clinical trials) is reported as about 18 h.

With “urocortin 1 (DNPSLSIDLTFHLLRTLLELARTQSQRERAEQNRIIFDSV; ends and bridges not checked; UniProt P55089 83-122, looked up) [Ucn1]”, the “binding affinity for CRF1 relative to CRF” value with CRF1 was “threefold higher”.

In the case of darbepoetin alfa, for the setting “in vivo”, the “serum half-life compared to epoetin alpha and epoetin beta” value was 3 fold.

Consider bevacizumab: therapeutic antibody, for which, for the setting “in vivo”, the “circulating serum concentration reported for therapeutic antibody” value was 10 to 30 µg/mL.

For “aglycosylated form of human transferrin: aglycosylated form, about 2-8% of the total transferrin pool”, the half-life in data set [1] is 336 to 408 h.

One may read the half-life as the time needed for the level to fall by half in the phase considered.
